Test results reported in paper PMC5833442, “Cooperation between Hsp90 and mortalin/GRP75 in resistance to cell death induced by complement C5b-9” (Cell Death & Disease, 2018).

Biological target: T1, recombinant human Hsp90β (human, UniProt P08238 1-724)
T1 construct: Heat shock protein 90 beta (Hsp90β, constitutively expressed form, gene HSP90AB1), human, recombinant; Commercial protein; also called heat shock protein 90; purified Hsp90; source: bought: StressMarq (recombinant)
Test: co-sedimentation; Hsp90β mixed with C9 or BSA (1 µg each) in TBS, 1 h at 37 °C; sucrose density gradient (1–20% by text and methods, 10–30% by legend), 18 h ultracentrifugation, 4 °C; fractions dot blotted with anti-Hsp90β or anti-C9
Conditions: both partners purified

T1 sequence (P08238 whole entry): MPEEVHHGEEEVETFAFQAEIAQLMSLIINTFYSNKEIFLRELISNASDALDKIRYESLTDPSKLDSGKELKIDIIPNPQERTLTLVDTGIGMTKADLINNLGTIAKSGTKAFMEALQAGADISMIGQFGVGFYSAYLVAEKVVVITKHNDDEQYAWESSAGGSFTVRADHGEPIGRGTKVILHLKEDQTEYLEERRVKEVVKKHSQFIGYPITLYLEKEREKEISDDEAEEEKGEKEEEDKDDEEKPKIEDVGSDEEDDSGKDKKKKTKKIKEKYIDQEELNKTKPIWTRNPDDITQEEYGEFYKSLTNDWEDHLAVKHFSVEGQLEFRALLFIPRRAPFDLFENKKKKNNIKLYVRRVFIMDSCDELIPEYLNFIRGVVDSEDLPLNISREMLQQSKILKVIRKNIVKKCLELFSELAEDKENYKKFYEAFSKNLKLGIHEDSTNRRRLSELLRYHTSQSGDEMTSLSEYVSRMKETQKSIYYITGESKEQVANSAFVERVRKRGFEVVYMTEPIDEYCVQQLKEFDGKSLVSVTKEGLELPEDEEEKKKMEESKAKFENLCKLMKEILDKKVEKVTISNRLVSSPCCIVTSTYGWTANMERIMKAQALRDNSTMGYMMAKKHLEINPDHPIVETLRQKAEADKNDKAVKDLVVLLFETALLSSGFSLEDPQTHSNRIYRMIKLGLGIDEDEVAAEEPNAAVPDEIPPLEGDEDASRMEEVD

- binding result: binds
B1: purified human C9 (natural protein)
chain: not shown
notes: Complement component C9, human, purified; also called complement C9; complement protein C9; source: bought: Complement Technology Inc. (purified human C9)
